Experiments:
[1] = molecular target: T1, HLA-A2 on T2 cells alone (not pulsed with peptide) (human); assay: flow cytometry, phage clones on T2 cells
T1 construct: TAP-deficient HLA-A2+ T2 cells with no peptide added; Also used as the HLA-A2 that pulsed peptides stabilise; also called T2 alone; T2 cells left unpulsed

[2] = molecular target: T2, WT1 RMF (…)/HLA-A2 complex on cells (human); assay: flow cytometry, phage clones on RMF-pulsed T2 cells
T2 construct: On T2 cells pulsed with the peptide, on cells expressing the RMF minigene, or naturally presented on WT1+/HLA-A2+ tumour cells; also called RMF/HLA-A2; WT1 RMF/A2 complex

[3] = molecular target: T3, biotinylated WT1 RMF pMHC complex (human); assay: SPR (Biacore), biotinylated pMHC on CAP chip, BiTE as analyte 150 to 4.6875 nM, 1:1 binding model; clone #34 BiTE
T3 construct: Soluble biotinylated complex loaded on the Biacore CAP chip; also called HLA-A2-WT1 RMF complex

[4] = molecular target: T4, TSTP1-10-mer (…)/HLA-A2 complex on T2 cells (human); assay: flow cytometry, T2 cells alone or pulsed with peptide, stained with BiTE at 1 µg/ml, MFI
T4 construct: Potential off-target peptide pulsed onto T2 cells; also called Tyrosyl protein sulfotransferase 1 peptide

[5] = molecular target: T3, biotinylated WT1 RMF pMHC complex; assay: SPR (Biacore), biotinylated pMHC on CAP chip, BiTE as analyte 150 to 4.6875 nM, 1:1 binding model; clone #18 BiTE

Binder	binding result [1]	binding result [2]	Kd [3] [nM]	binding result [4]	Kd [5] [nM]
ESK2 clone 26 (Clone 26 anti-WTMC antibody moiety), phage clone (scFv, V domains shown, Human scFv on phage (E-ALPHA library); also called ESK2-26) VH: QVQLVQSGGGLVQPGRSLRLSCAASGFTFDDYAMHWVRQAPGKGLEWVSGISWNSGSIGYADSVKGRFTISRDNAKNSLYLQMNSLRPEDTAVYYCARGYMGHNWYDWGQGTLVTVSS VL: LPVLTQPPSVSVAPGKTARITCGGNDIGSKAVHWYQQKPGQAPVLVIYYNRDRPSGIPERFSGSNSGNTATLTISRVEAGDEADYYCQVWDSFSDHYVFGTGTKVTVLG	no binding	binds			
ESK2 clone 32 (Clone 32 anti-WTMC antibody moiety), phage clone (scFv, V domains shown, Human scFv on phage (E-ALPHA library); also called ESK2-32) VH: QVQLVQSGAEVKKPGSSVKVSCKASGDTFSSYAVSWVRQAPGQGLEWMGAINLIFGTVKYAQKFQGRITITADESTSTAYMELSSLRSEDTAVYYCARGHWSQVWWTSHSYDLWGQGTLVTVSS VL: QAVLTQPPSVSVAPGKTARITCGGNNIGSKSVHWYQQKPGQAPVLVVYDDSDRPSGIPERFSGSNSGNTATLTISRVEAGDEADYYCQVWDSSSDHYVFGTGTKVTVLG	no binding	binds			
ESK2 clone 30 (Clone 30 anti-WTMC antibody moiety), phage clone (scFv, V domains shown, Human scFv on phage (E-ALPHA library); also called ESK2-30) VH: QVQLQESGGGLVQPGGSLRLSCAASGFTFSSYWMHWVRQAPGKGLVWVSRINSDGSSTSYADSVKGRFTISRDNAKNTLYLQMNSLRAEDTAVYYCARSGYYMSDIWGQGTLVTVSS VL: NFMLTQPPSLSVAPGKTATITCGGNNIGSKSVHWYQQKPGQAPVLVISYDSDRPSGIPERFSGSKSGNTATLTISRVEAGDEADYYCQVWDSSSDQYVFGSGTKVTVLG	no binding	binds			
ESK2 clone 11 (Clone 11 anti-WTMC antibody moiety), phage clone (scFv, V domains shown, Human scFv on phage (E-ALPHA library); also called ESK2-11) VH: not shown VL: QSVVTQPPSVSAAPGQRVTISCSGGSSNIGNNYVSWYQHLPGTAPKLLIYENNLKRPSGIPDRFSGSKSGTSATLGITGLQTGDEADYYCGTWDSSLNAGVFGGGTKLTVLG	no binding				
ESK2 clone 14 (Clone 14 anti-WTMC antibody moiety), phage clone (scFv, V domains shown, Human scFv on phage (E-ALPHA library); also called ESK2-14) VH: EVQLVQSGAEVKKPGASVKISCKTSGYTFTDYYLHWVRQAPVQGLEWMGYVDPYDGYTHYAQNFQGRVTMTTDTSTSTAYMELSSLRSEDTAVYYCARFSGTRQDSHWGQGTLVTVSS VL: QSALTQPPSASGSPGQSVTISCTGTSSDVGGYNYVSWYQQHPGKAPKLMIYEVSKRPSGVPDRFSGSKSGNTASLTVSGLQAEDEADYYCSSYAGSNNLAVVFGGGTKLTVLG	no binding				
ESK2 clone #34 BiTE (bispecific antibody, V domains shown, made in CHO cells; also called ESK2-#34 BiTE) VH: QVQLVQSGTEVRKPGASLKVSCTTSGYIFTGYYIHWVRQVPGQGLEWMGWINPNSGVTEFAQGFQGRITMTRDTSTSTVYMELSRLTSDDTAVYYCAREGVWGYYDSWGQGTLVTVSS VL: SSELTQDPAVSVALGQTVRITCQGDSLRSYYASWYQQKPGQAPVLVIYDKNNRPSGIPDRFSGSSSGNTASLTITGAQAEDEADYYCNSRDSSGNHHVVFGGGTKLTVLG			1.5	no binding (tested: 1 µg/ml)	
ESK2 clone 1 (Clone 1 anti-WTMC antibody moiety), phage clone (scFv, V domains shown, Human scFv on phage (E-ALPHA library); also called ESK2-1) VH: EVQLVQSGAEVKKPGASVKVSCKASGYNFTSYGISWVRQAPGQGLEWMGWISAYNGNTNYAQKLQGRVTMTTDTSTSTAYMELRSLRSDDTAVYYCARDWDYDFLTGWDGMDVWGQGTTVTVSS VL: QSVVTQPPSVSAAPGQKVTISCSGSSSNIGNNYVSWYQQLPGTAPKLLIYYNNKRPSGIPDRFSGSKSGTSATLGITGLQTGDEADYYCGTWDSSLSAGQVFGGGTKLTVLG	no binding	binds			
ESK2 clone 12 (Clone 12 anti-WTMC antibody moiety), phage clone (scFv, V domains shown, Human scFv on phage (E-ALPHA library); also called ESK2-12) VH: EVQLVESGGGLVQPGGSLRLSCVVSGITVSNNYMTWVRQAPGKGLEWVSVIYSDGSTYYADSVRGRFTISRDISKNTVFLQMNSLRAEDTAMYYCASDKVAVAWTDGLDSWGQGTMVTVSS VL: SSELTQDPTVSVALGQTVRITCQGDSLRSYYGGWYQQKPGQAPILVFHGQTNRPSGIPDRFSGSSSGNTVSLTITGAQAEDEADYYCSSRDSSGNHWVFGGGTKLTVLG	no binding	binds			
ESK2 clone 36 (Clone 36 anti-WTMC antibody moiety), phage clone (scFv, V domains shown, Human scFv on phage (E-ALPHA library); also called ESK2-36) VH: EVQLVQSGAEVKKPGESLRISCKDSGYSFTSYWISWVRQMPGKGLEWMGRIDPSDSYTNYSPSFQGHVTISADKSISTAYLQWSSLKASDTAMYYCARMEIYSPDYWGQGTLVTVSS VL: DIQLTQSPSSLSASVGDRVTISCRASQSINKYLNWYQQKPGEAPKLLIYGALRLQSGVPSRFSGSGSGTDYALTITSLQPEDFATYYCQQSYSTPLTFGGGTKVDIKR	no binding	binds			
ESK2 clone 17 (Clone 17 anti-WTMC antibody moiety), phage clone (scFv, V domains shown, Human scFv on phage (E-ALPHA library); also called ESK2-17) VH: EVQLVQSGAEVKKPGESLKISCKGSGYSFTSYWIGWVRQMPGKGLEWMGIIYPGDSDTRYSPSFQGQVTISADKSISTAYLQWSSLKASDTAVYYCARGGYIYYDAWGQGTLVTVSS VL: SYVLTQPPSVSEAPRQRVTISCSGSRSNVGNNAVSWYQHLPGKAPKLLIYYDDLMPSGVSDRFSGSKSGTSASLAISGLQSEDEADYYCAAWDDSLNGLVFGGGTKLTVLG	no binding	binds			
ESK2 clone 15 (Clone 15 anti-WTMC antibody moiety), phage clone (scFv, V domains shown, Human scFv on phage (E-ALPHA library); also called ESK2-15) VH: QVQLVQSGAEVKKPGASVKVSCKASGYTFTDFYIHWVRQAPGQGPEWMGWVNPKSGGTNYAQKFQGRVTMTRDTSISTAYMALSRLRSDDTAVYYCARSWQGMSWESVEDVWGQGTLVTVSS VL: QSVLTQPPSVSGAPGQRVTISCTGSSSNIGAGYDVHWYQQLPGTAPKLLIYGNSNRPSGVPDRFSGSKSGTSASLAITGLQAEDEADYYCQSYDSSLSGAVFGTGTKVTVLG	no binding	binds			
ESK2 clone #18 BiTE (bispecific antibody, V domains shown, made in CHO cells; also called ESK2-#18 BiTE; ESK2-BiTE clone #18) VH: not shown VL: QSVLTQPPSVSGAPGQRVSISCTGSSSNIGAGYVVHWYQHLPGTVPKLLIYDNSNRPSGVPDRFSGSNSGSSASLAVTGLQAEDEADYYCQSYDSSLSGWVFGGGTKLTVLG					3
ESK2 clone 10 (Clone 10 anti-WTMC antibody moiety), phage clone (scFv, V domains shown, Human scFv on phage (E-ALPHA library); also called ESK2-10) VH: EVQLVESGGGVVQPGGSLRLSCAASGFTFDDYAMHWVRQAPGKGLEWVSLISGDGGSTYYADSVKGRFTISRDNSKNSLYLQMNSLRTEDTALYYCAKDMVAAAGWNPYYYYYGMDVWGQGTTVTVSS VL: NFMLTQPHSVSESPGKTVTISCTRSSGGIATNYVQWYQQRPGNAPTAVIYVDNERPSGVPERFSGSIDTSSNSASLTISGLETEDEADYYCQSYDSNNHVVFGGGTKVTVLG	no binding	binds			
